Test results published in FireProtDB (doi:10.1016/j.jmb.2011.02.053).

B1: Guanyl-specific ribonuclease Sa, P05798 (parent)
chain: DVSGTVCLSALPPEATDTLNLIASDGPFPYSQDGVVFQNRESVLPTQSYGYYHEYTVITPGARTRGTRRIITGEATQEDYYTGDHYATFSLIDQTC

Variants of: B1
Conditions: Kitasatospora aureofaciens; pH 7; Thermal; Fluorescence; MOPS 30mM; transition: 2; reversible: yes; structure 1RGG; whole UniProt chain shown

Variant	change of melting temperature, mutant - wild type (higher = more stable) [°C]	ddG of mutation (higher = less stable) [kcal/mol]	unfolding enthalpy (calorimetric) [kcal/mol]
DVSGTVCLSALPPEATDTLNAIASDGPFPYSQDGVVFQNRESVLPTQSYGYYHEYTVITPGARTRGTRRIITGEATQEDYYTGDHYATFSLIDQTC [L21A]	-1.6	0.41	85
DVSGTVCLSALPPEATDTLNLIASDGPFPYSQDGVVFQNRESVLPTQSYGYYHEYTVVTPGARTRGTRRIITGEATQEDYYTGDHYATFSLIDQTC [I58V]	0.11	0	89
DVSGTVCASALPPEATDTLNLIASDGPFPYSQDGVVFQNRESVLPTQSYGYYHEYTVITPGARTRGTRRIITGEATQEDYYTGDHYATFSLIDQTC [L8A]	-5	1.34	89
DVSGTVCLSALPPEATDTLNLIASDGPFPYSQDGVVFQNRESVLPTQSYGYYHEYTVITPGARTRGTRRIITGEATQEDYYTGDHYATFSAIDQTC [L91A]	-3.2	0.84	91
DVSGTVCLSALPPEATDTLNLIASDGPFPYSQDGVVFQNRESVLPTQSYGYYHEYTVITPGARTRGTRRIVTGEATQEDYYTGDHYATFSLIDQTC [I71V]	-0.3	0.13	80
DVSGTVCLSALPPEATDTANLIASDGPFPYSQDGVVFQNRESVLPTQSYGYYHEYTVITPGARTRGTRRIITGEATQEDYYTGDHYATFSLIDQTC [L19A]	-13.8	3.65	73
DVSGTVCLSALPPEATDTLNLVASDGPFPYSQDGVVFQNRESVLPTQSYGYYHEYTVITPGARTRGTRRIITGEATQEDYYTGDHYATFSLIDQTC [I22V]	-5.7	1.48	74
DVSGTVCLSALPPEATDTLNLIASDGPFPYSQDGVVFQNRESVLPTQSYGYYHEYTVITPGARTRGTRRVITGEATQEDYYTGDHYATFSLIDQTC [I70V]	-3.4	0.94	87
DVSGTVCLSALPPEATDTLNLIASDGPFPYSQDGVVFQNRESVLPTQSYGYYHEYTVITPGARTRGTRRIITGEATQEDYYTGDHYATFSLVDQTC [I92V]	-3.9	1	84
